The target in the experiment is Fas receptor (Fas, CD95) on human T cells (human) (UniProt P25445). Nature of the experiment: cell-based or functional assay.

The text below walks through data of patent US20260048120A1.

Chain of UniProt P25445 (P25445 26-335): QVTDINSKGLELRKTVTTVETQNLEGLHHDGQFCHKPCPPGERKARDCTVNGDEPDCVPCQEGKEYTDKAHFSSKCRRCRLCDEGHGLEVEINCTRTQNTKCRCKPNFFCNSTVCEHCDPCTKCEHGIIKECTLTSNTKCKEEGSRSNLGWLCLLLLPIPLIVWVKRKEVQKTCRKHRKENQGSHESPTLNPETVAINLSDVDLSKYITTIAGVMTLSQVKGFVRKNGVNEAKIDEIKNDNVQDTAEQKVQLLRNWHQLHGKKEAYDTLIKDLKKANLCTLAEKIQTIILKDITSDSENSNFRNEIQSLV

In turn, “recombinant human FasL (BioLegend) (from UniProt P48023 134-281) (ligand)” gave a cell survival rate (Annexin V- & DAPI-) after about 16 h of 100 ng/mL FasL, SPPL3-KO Jurkat T cells of 63.1%; a cell survival rate (Annexin V- & DAPI-) after about 16 h of 100 ng/mL FasL, control (NT-KO) Jurkat T cells of 25.7%; a cell survival rate of the Cas9+ sgRNA-iBAR Jurkat T cell library after the first round of 10 ng/ml FasL of 4%; a cell survival rate of the Cas9+ sgRNA-iBAR Jurkat T cell library after the second round of 10 ng/ml FasL of 44.8%. Besides, the cell survival rate of the Cas9+ sgRNA-iBAR Jurkat T cell library after the third round of 10 ng/ml FasL amounted to 55.5% and the share of CTV-labeled SPPL3-KO primary T cells in a 1:1 mix with CFSE-labeled NT-KO primary T cells after 16 h of 500 ng/mL FasL (49.2% without FasL) was 75.3%.
